# Source: US6506592B1, “Hyperthermophilic alpha-glucosidase gene and its use” (Board of Regents of the University of Nebraska, priority 1998, dated 2003)
# Columns and labels:
# [1] = glucose release from endogenous polysaccharide-enriched tobacco extract at 80° C.; format: biochemical, Nicotiana tabacum; settings: transgenic protein extract plus polysaccharide-enriched tobacco extract, terminated after 160 hr
# Protocol: (§1) FIGS. 7A and B show the release of glucose by transgenic glycosyl hydrolases from exogenous and endogenous plant carbohydrates. FIG. 7A. Glucose released by the alpha-glucosidase using an exogenous soluble starch as substrate. A 5% (w/v) solution of soluble starch was incubated at 80° C. with no additions (closed circles), with a protein extract from a plant transformed with an empty vector (open circles) and with a protein extract from transformant MI52E containing the alpha-glucosidase (closed squares). FIG. 7B. Glucose released by glycosyl hydrolases using an endogenous polysaccharide-enriched plant extract as substrate. Protein extracts were: beta-glycosidase (closed squares), alpha-glucosidase (closed circles), and empty vector transformed plant (labeled). Glucose levels were determined using the glucose oxidase assay.
# To obtain tobacco leaf extract for assays, approximately […] of tobacco (five 1.1 cm diameter disk punches) leaves were harvested, rinsed with distilled water, midribs removed and weighed. Leaves were then ground to a powder in liquid nitrogen and ground again with a sterilized pestle. […] Glucose released by glycosyl hydrolase action on endogenous plant carbohydrates was measured using the Glucose Oxidase Assay (Sigma).
# Levels of liberated glucose were determined as a function of incubation time at 80° C. […]
# [2] = beta-glycosidase activity in tobacco leaf extract (beta-PNPG hydrolysis); format: biochemical
# Protocol: To obtain tobacco leaf extract for assays, approximately […] of tobacco (five 1.1 cm diameter disk punches) leaves were harvested, rinsed with distilled water, midribs removed and weighed. Leaves were then ground to a powder in liquid nitrogen and ground again with a sterilized pestle. The extracts were then clarified by centrifugation at 14,000 rpm for 10 minutes at room temperature. The resulting supernatant was heat treated for 1 hour at 85° C. and clarified by spinning at 14,000 rpm for 10 minutes at room temperature. The supernatant was collected and assayed for alpha-glucosidase or beta-glycosidase enzyme activity by measuring the hydrolysis of p-nitrophenyl-alpha-glucopyranoside (alpha-PNPG) and p-nitrophenyl-beta-D-glucopyranoside (beta-PNPG), respectively, as previously described (Rolfsmeier, et al., 1998; Haseltine, et al., 1999(a)). Plant tissue extracts for studies on hydrolysis of added defined substrates were prepared using 100 g of tobacco leaves were harvested and grinded to a fine powder in liquid nitrogen. The leaf powder was resuspended in 500 ml of 10 mM tris-Cl pH7.0 to which 10 mM beta-mercaptoethanol has been added. The suspension was then homogenized in a Waring blender. The resulting extract was centrifuged at 5,000 rpm for 30 minutes at 4° C. and the supernatant was further clarified by filtering through three layers of cheesecloth. […] Glucose released by glycosyl hydrolase action on endogenous plant carbohydrates was measured using the Glucose Oxidase Assay (Sigma).
# Glucosyl hydrolase levels were determined in primary plant transformants using clarified leaf extracts incubated at 80° C. […] Activity was measured on fully expanded leaves of plants that had grown in soil for 76 to 164 days. Levels of the beta-glycosidase in young primary transformants was determined in twenty-three independent events. […]
# It has been determined that glycosyl hydrolases retain significant activity in fully mature and preserved leaf tissue. […]
# [3] = glucose release by transgenic plant protein extracts at 80° C.; format: biochemical; settings: transgenic plant protein extract, incubation at 80° C.
# Protocol: as §1
# Conversion of plant polysaccharide into free sugar is conventionally done by addition of purified or semipurified hydrolytic enzymes. […] Protein extracts of the alpha-glucosidase transgenic plant MI52E, were prepared and combined with soluble starch. Plant leaves were harvested in the late afternoon, ground in liquid nitrogen with a mortar and pestle in 100 mM phosphate buffer at pH 7.0. […] No significant glucose was detected in reactions containing protein extracts from plants transformed with empty vector and added starch or in reactions containing starch alone. […]
# [4] = glycogen hydrolysis, glucose oxidase assay; format: biochemical
# Description: (§2) Purification of the recombinant enzyme to apparent homogeneity employed heat fractionation of clarified cell sonicates followed by anion-exchange fast protein liquid chromatography and gel filtration fast protein liquid chromatography as described by Rolfsmeier, et al., 1995. […] Complete denaturation of the recombinant alpha-glucosidase required additional treatment with 6 M guanidine hydrochloride, resulting in exclusive formation of the 80-kDa monomer. Assays for alpha-glucosidase activity with p-nitrophenyl-α-D-glucopyranoside were performed as described by Rolfsmeier, et al., 1995. In enzymatic assays for hydrolysis of maltose and glycogen, release of glucose was monitored with a glucose oxidase assay kit (Sigma) as described by Rolfsmeier, et al., 1995.
# Alpha-glucosidases of mammalian origin are generally distinguished from those of higher plants and eubacteria by their affinities for glycogen as a substrate.
# [5] = recalcitrance to denaturation in denaturing SDS-PAGE; format: physicochemical; settings: boiling in 2% (wt/vol) SDS for 10 minutes
# Description: as §2
# [6] = hydrolysis of p-nitrophenyl-α-D-glucopyranoside by purified recombinant enzyme; format: biochemical; settings: 85° C., purified recombinant enzyme from E. coli
# Protocol: The production of the recombinant enzymes of this invention were conducted by over expression in E. coli. Assays for alpha-glucosidase activity were performed with para-nitrophenyl-alpha-D-glucopyranoside or methylumbelliferyl-alpha-D-glucoside. Assays for hydrolysis of substrate and detection of glucose were monitored by means known in the art. Purification of the recombinant enzyme to apparent homogeneity employed heat fractionation of clarified cell sonicates followed by anion-exchange fast protein liquid chromatography and gel filtration fast protein liquid chromatography as described in Rolfsmeier, et al.,1995.
# Purification of the recombinant enzyme to apparent homogeneity employed heat fractionation of clarified cell sonicates followed by anion-exchange fast protein liquid chromatography and gel filtration fast protein liquid chromatography as described by Rolfsmeier, et al., 1995. […] Complete denaturation of the recombinant alpha-glucosidase required additional treatment with 6 M guanidine hydrochloride, resulting in exclusive formation of the 80-kDa monomer. Assays for alpha-glucosidase activity with p-nitrophenyl-α-D-glucopyranoside were performed as described by Rolfsmeier, et al., 1995. In enzymatic assays for hydrolysis of maltose and glycogen, release of glucose was monitored with a glucose oxidase assay kit (Sigma) as described by Rolfsmeier, et al., 1995. […]
# [7] = maltose hydrolysis, glucose oxidase assay; format: biochemical; settings: FIG. 4A
# Description: as §2
# (Rolfsmeier et al., 1995).
# [8] = alpha-glucosidase activity in tobacco leaf extract (alpha-PNPG hydrolysis); format: biochemical
# Protocol: To obtain tobacco leaf extract for assays, approximately […] of tobacco (five 1.1 cm diameter disk punches) leaves were harvested, rinsed with distilled water, midribs removed and weighed. Leaves were then ground to a powder in liquid nitrogen and ground again with a sterilized pestle. The extracts were then clarified by centrifugation at 14,000 rpm for 10 minutes at room temperature. The resulting supernatant was heat treated for 1 hour at 85° C. and clarified by spinning at 14,000 rpm for 10 minutes at room temperature. The supernatant was collected and assayed for alpha-glucosidase or beta-glycosidase enzyme activity by measuring the hydrolysis of p-nitrophenyl-alpha-glucopyranoside (alpha-PNPG) and p-nitrophenyl-beta-D-glucopyranoside (beta-PNPG), respectively, as previously described (Rolfsmeier, et al., 1998; Haseltine, et al., 1999(a)). Plant tissue extracts for studies on hydrolysis of added defined substrates were prepared using 100 g of tobacco leaves were harvested and grinded to a fine powder in liquid nitrogen. The leaf powder was resuspended in 500 ml of 10 mM tris-Cl pH7.0 to which 10 mM beta-mercaptoethanol has been added. The suspension was then homogenized in a Waring blender. The resulting extract was centrifuged at 5,000 rpm for 30 minutes at 4° C. and the supernatant was further clarified by filtering through three layers of cheesecloth. Plant extracts used for studies on hydrolysis of endogenous polysaccharides as sources of transgenic proteins were prepared using one leaf (medium to large) for each plant which was harvested and ground to a fine powder in liquid nitrogen. The ground leaves were resuspended in 2 volumes of 100 mM sodium phosphate pH 7.0 with 10 mM beta-mercaptoethanol and the tissue was further homogenized in a Waring blender. The resulting extracts were then incubated at 80° C. to activate the recombinant alpha-glucosidase and beta-glycosidase for 48 hours. After incubation, the extracts were clarified by centrifugation by 12,500 rpm for 10 minutes 4° C. Glucose released by glycosyl hydrolase action on endogenous plant carbohydrates was measured using the Glucose Oxidase Assay (Sigma).
# Glucosyl hydrolase levels were determined in primary plant transformants using clarified leaf extracts incubated at 80° C. Plants transformed with empty vector lacked detectable thermostable glycosyl hydrolase activity. Activity was measured on fully expanded leaves of plants that had grown in soil for 76 to 164 days. Levels of the beta-glycosidase in young primary transformants was determined in twenty-three independent events. Enzyme levels in ten representative isolates ranged over 12-fold with maximum values of 29 μmoles PNP/min/mg of protein (FIG. 5B).
# It has been determined that glycosyl hydrolases retain significant activity in fully mature and preserved leaf tissue. Glycosyl hydrolase specific activities in plant tissues were compared, after freezing or drying, to levels in fresh tissue samples (Table 2). Significant beta-glycosidase activity was retained in leaves harvested and held at −80° C. for 5 days.
# [9] = conversion of added starch to glucose by concentrated malA tobacco extract at 85° C.; format: biochemical; settings: 5% starch, extract pre-treated one hour at 85° C., 16 hours
# Protocol: Precipitation of tobacco leaf proteins with (NH4)2 SO4 achieved a 3-fold concentration of the recombinant alpha-glucosidase with a recovery of 100%. Endogenous plant glycolytic activities were eliminated prior to malA assays by heat inactivation (1 hr, […]). Background due to endogenous glucose was removed by dialysis. […] In an attempt to remove this background, concentrated empty vector control extract was pre-incubated for one hour at 85° C., clarified by microcentrifugation and then incubated for 0 or 14 hour at 85° C. in the presence or absence of 5% starch. Without preincubation, background in the presence of starch was very high, at both 0 and at 14 hours, corresponding to 17.8 to 19.2 micrograms of glucose per 100 microliters of assay. Background in the absence of starch was much lower, but apparently more time-dependent, rising from 0.9 to 1.6 micrograms of glucose per 100 microliters in 14 hours (FIG. 7). When the extract was pre-heated before assay, the background in the absence of starch was unchanged, but the background in the presence of starch was then at the same level as the background in the absence of starch without pre-heating (FIG. 7). […]
# For measurements of glycosyl hydrolase activities on glucose polymers. […] Aliquots of 100 ul were removed at four hour intervals and glucose was detected with a glucose oxidase glucose detection kit from Sigma.
# [10] = Dried transgenic tobacco leaf tissue
# [11] = Fresh transgenic tobacco leaf tissue
Molecule,initial lag before levels of glucose began to increase [1] [h],"Beta-glycosidase specific activity in plant tissue [2, 10] [μmoles PNP/min/mg]","Beta-glycosidase specific activity in plant tissue [2, 11] [μmoles PNP/min/mg]",Beta-glycosidase specific activity in plant tissue ([2]; Frozen transgenic tobacco leaf tissue (−80° C. for 5 days)) [μmoles PNP/min/mg],rate of appearance of glucose [3] [µg/h],Km for glycogen ([4]; 85° C.) [mg/mL],Vmax for glycogen ([4]; 85° C.),pH optimum for glycogen hydrolysis ([4]; FIG. 4B),"enzyme that failed to enter the separating gel, migrating in the stacking gel [5]",Vmax for p-nitro-phenyl-α-D-glucopyranoside [6],Km ([6]; read-out: Km for p-nitro-phenyl-α-D-glucopyranoside) [µM],pH optimum for maltose hydrolysis [7],"Alpha-glucosidase specific activity in plant tissue [8, 10] [μmoles PNP/hr/mg]","Alpha-glucosidase specific activity in plant tissue [8, 11] [μmoles PNP/hr/mg]",Alpha-glucosidase specific activity in plant tissue ([8]; Frozen transgenic tobacco leaf tissue) [μmoles PNP/hr/mg],"activity more stable when dried, as compared to fresh tissues ([8]; dried vs fresh tobacco tissue) [times]","activity more stable when frozen, as compared to fresh tissues ([8]; frozen vs fresh tobacco tissue)",net rate of glucose formation (conversion of added starch to glucose) [9] [micrograms per hour]
"Beta-glycosidase: S. solfataricus beta-glycosidase (lacS) converting beta-linked disaccharides into glucose, expressed in transgenic tobacco (protein) MYSFPNSFRFGWSQAGFQSEMGTPGSEDPNTDWYKWVHDPENMAAGLVSGDLPENGPGYWGNYKTFHDNAQKMGLKIARLNVEWSRIFPNPLPRPQNFDESKQDVTEVEINENELKRLDEYANKDALNHYREIFKDLKSRGLYFILNMYHWPLPLWLHDPIRVRRGDFTGPSGWLSTRTVYEFARFSAYIAWKFDDLVDEYSTMNEPNVVGGLGYVGVKSGFPPGYLSFELSRRAMYNIIQAHARAYDGIKSVSKKPVGIIYANSSFQPLTDKDMEAVEMAENDNRWWFFDAIIRGEITRGNEKIVRDDLKGRLDWIGVNYYTRTVVKRTEKGYVSLGGYGHGCERNSVSLAGLPTSDFGWEFFPEGLYDVLTKYWNRYHLYMYVTENGIADDADYQRPYYLVSHVYQVHRAINSGADVRGYLHWSLADNYEWASGFSMRFGLLKVDYNTKRLYWRPSALVYREIATNGAITDEIEHLNSVPPVKPLRH",28,31,62,67,0.15,,,,,,,,,,,,,
"recombinant alpha-glucosidase: thermostable alpha-glucosidase of Sulfolobus solfataricus encoded by malA (SEQ ID NO:2), expressed recombinantly in E. coli or transgenic tobacco (protein, listed as Sulfolobus solfataricus) MQTIKIYENKGVYKVVIGEPFPPIEFPLEQKISSNKSLSELGLTIVQQGNKVIVEKSLDLKEHIIGLGEKAFELDRKRKRYVMYNVDAGAYKKYQDPLYVSIPLFISVKDGVATGYFFNSASKVIFDVGLEEYDKVIVTIPEDSVEFYVIEGPRIEDVLEKYTELTGKPFLPPMWAFGYMISRYSYYPQDKVVELVDIMQKEGFRVAGVFLDIHYMDSYKLFTWHPYRFPEPKKLIDELHKRNVKLITIVDHGIRVDQNYSPFLSGMGKFCEIESGELFVGKMWPGTTVYPDFFREDTREWWAGLISEWLSQGVDGIWLDMNEPTDFSRAIEIRDVLSSLPVQFRDDRLVTTFPDNVVHYLRGKRVKHEKVRNAYPLYEAMATFKGFRTSHRNEIFILSRAGYAGIQRYAFIWTGDNTPSWDDLKLQLQLVLGLSISGVPFVGCDIGGFQGRNFAEIDNSMDLLVKYYALALFFPFYRSHKATDGIDTEPVFLPDYYKEKVKEIVELRYKFLPYIYSLALEASEKGHPVIRPLFYEFQDDDDMYRIEDEYMVGKYLLYAPIVSKEESRLVTLPRGKWYNYWNGEIINGKSVVKSTHELPIYLREGSIIPLEGDELIVYGETSFKRYDNAEITSSSNEIKFSREIYVSKLTITSEKPVSKIIVDDSKEIQVEKTMQNTYVAKINQKIRGKINLE",28,,,,0.11,64.9,1.0 μmol of glucose/min,5.5,45 % of the total observed protein,3.08 μmol of p-nitrophenol/min,2160,4.5,27,1.6,3.6,17,over two,0.42
